The target in test [1] is T1, human DLL3 on SHP-77 cells (human, UniProt Q9NYJ7 27-618).
T1 construct: also called DLL3-expressing cells (SHP-77)
T1 sequence: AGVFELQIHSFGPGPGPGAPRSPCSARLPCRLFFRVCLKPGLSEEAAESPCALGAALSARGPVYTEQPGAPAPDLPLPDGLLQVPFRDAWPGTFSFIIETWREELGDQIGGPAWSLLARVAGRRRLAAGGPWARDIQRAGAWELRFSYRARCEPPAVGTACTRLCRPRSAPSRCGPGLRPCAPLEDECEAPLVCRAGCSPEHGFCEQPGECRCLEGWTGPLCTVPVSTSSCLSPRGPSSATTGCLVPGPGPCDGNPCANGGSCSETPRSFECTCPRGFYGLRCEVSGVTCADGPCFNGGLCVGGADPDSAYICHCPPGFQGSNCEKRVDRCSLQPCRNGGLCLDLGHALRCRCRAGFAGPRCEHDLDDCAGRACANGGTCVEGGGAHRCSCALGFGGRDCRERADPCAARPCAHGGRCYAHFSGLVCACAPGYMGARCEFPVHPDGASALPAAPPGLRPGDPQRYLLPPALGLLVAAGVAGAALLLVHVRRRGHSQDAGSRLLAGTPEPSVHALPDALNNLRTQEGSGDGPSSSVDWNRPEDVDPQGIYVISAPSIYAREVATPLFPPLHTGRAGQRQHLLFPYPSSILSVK
In words: flow cytometry, SHP-77 cells. The method, then: (§1) SHP-77 and HEK293-cyno DLL3 cells were cultured. The culture medium for SHP-77 cells were RPMI1640+10% FBS, and the culture medium for HEK293 cyno DLL3 cells was DMEM+10% FBS+200 μg/ml Hygromycin. The cells were cultured in a T75 cell culture flask at a 37° C. 5% CO₂ incubator. When using cells, they are washed with sterile DPBS, digested with 0.25% trypsin EDTA for about 5 minutes, and then stopped with a complete medium.
(§2) The digested cells were centrifuged at 1000 rpm for 5 min at room temperature. The supernatant was discarded and the cells were resuspended in 100 μL of 1% BSA (in PBS). The cells were counted and adjusted to a cell density of 1E6/m. The dilute cells were seeded in a 96-well round-bottom culture plate (corning 3799), and centrifuged at 1500 rpm for 5 min at 4° C. The supernatant was discarded and the cells were stored at 4° C. until use. Antibody samples to be tested were diluted with 1% BSA (in PBS) at a starting concentration of 100 nM, downwards by a 10-fold gradient for 7 concentrations. The cells were resuspended with the diluted antibody at 100 μL/well and incubated for 1 hour at 4° C. The cells were centrifuged at 1500 rpm for 5 minutes at 4° C. and the supernatant was discarded. The cells were resuspended and washed with 160 μL of 1% BSA (in PBS), centrifuged at 1500 rpm for 5 minutes at 4° C. The supernatant was discarded. The secondary antibody (goat anti human IgG Fc PE) was diluted 1:200 with 1% BSA (in PBS) according to the manufacturer's instructions and the cells were resuspended with the diluted secondary antibody. 100 µL/well, and incubated for 0.5 h at 4° C. The cells were centrifuged at 1500 rpm for 5 minutes at 4° C. and the supernatant was discarded. The cells were resuspended and washed with 160 μL of 1% BSA (in PBS), centrifuged at 1500 rpm for 5 minutes at 4° C. The supernatant was discarded. The cells were resuspended in 100 μL of 1% BSA (in PBS), and filtered across a 300 mesh gauze. The mean fluorescence intensity of the PE channels was measured by flow cytometry.
(§3) The analyzed mean fluorescence intensity was imported into Graphpad to analyze the median-binding concentration (hereinafter referred to as EC50) of antibody and cell and the top mean fluorescence intensity (Top MFI).
For orientation: In flow cytometry, cells or beads pass a laser one at a time.

The target of test [2] is T2, Cynomolgus monkey DLL3 on HEK293 cells (HEK293-cyno DLL3) (Cynomolgus monkey, UniProt Q9NYJ7 27-618 (human entry)).
T2 chain: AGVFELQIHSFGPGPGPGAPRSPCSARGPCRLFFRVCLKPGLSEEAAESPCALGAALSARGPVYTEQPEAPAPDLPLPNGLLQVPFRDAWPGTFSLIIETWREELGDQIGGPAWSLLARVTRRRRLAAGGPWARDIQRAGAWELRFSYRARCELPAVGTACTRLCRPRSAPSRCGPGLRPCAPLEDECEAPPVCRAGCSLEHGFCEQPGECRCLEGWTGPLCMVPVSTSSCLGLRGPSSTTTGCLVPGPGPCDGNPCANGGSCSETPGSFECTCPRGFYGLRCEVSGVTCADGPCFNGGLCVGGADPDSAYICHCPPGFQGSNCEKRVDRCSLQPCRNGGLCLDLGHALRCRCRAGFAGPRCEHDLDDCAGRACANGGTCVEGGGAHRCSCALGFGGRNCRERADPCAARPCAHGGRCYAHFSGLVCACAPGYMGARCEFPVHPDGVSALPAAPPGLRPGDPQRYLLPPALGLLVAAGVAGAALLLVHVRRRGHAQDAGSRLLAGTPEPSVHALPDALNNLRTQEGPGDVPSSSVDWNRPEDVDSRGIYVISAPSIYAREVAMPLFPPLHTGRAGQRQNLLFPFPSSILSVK
The test is described as follows: flow cytometry, HEK293-cyno DLL3 cells. As for the experimental part:
as §1, §2, §3

Test [3] concerns the target T1, human DLL3 on SHP-77 cells. In words: flow cytometry, SHP-77 cells. The method, then:
SHP-77 cells were cultured. The culture medium for SHP-77 cells was RPMI1640+10% FBS. The cells were cultured in a T75 cell culture flask at a 37° C. 5% CO₂ incubator. When using cells, they are washed with sterile DPBS, digested with 0.25% trypsin EDTA for about 5 minutes, and then stopped with a complete medium.
as §2, with “plated” for “seeded”, “antibody,” for “antibody.”
as §3
The source holds these as a separate data set.

Where a chain is given by its changes, count along the chain named. Like-named read-outs stand apart in the source and are kept apart here.

B1: 26C4D2 mouse hybridoma-derived anti-DLL3 chimeric antibody (antibody, V domains shown)
VH: QVQLQQPGAELVKPGASVKLSCKASGYSFTSYWMHWVKQRPGQGLEWIGMIHPTLGDTNYNEKFKSKATLTVDKSSSTAYMELSSLTSEDSAVYYCARLGSLSMMDYWGQGTSVTVSS
VL: DIQMTQTTSSLSASLGDRVTISCSASQGISNYLNWYQQKPDGTVKLLIYYTSSLHSGVPARFSGSGSGTDYSLTISNLEPEDIAIYYCQQYSKFPYTFGGGTKLEIK
Usually EC50 stands for the concentration needed to bring the measured effect to its halfway point. Regarding B1, in test [1], the EC50 is 0.6 nM and the “Top MFI” value turned out to be 1050 MFI. For the same molecule, in test [2], the midpoint of the response, the EC50, lay at 0.43 nM and the “Top MFI” value worked out at 421 MFI.

B2: 48B6D7 mouse hybridoma-derived anti-DLL3 chimeric antibody (antibody, V domains shown)
VH: QVQLQQPGAELVKPGTSVKLSCEASGYTFSNYWMQWVRQRPGQGLEWIGMILPNSDITNYNENFQTKATLTVDKSSSTAYMQLSSLTSEDSAVYYCARQARYSAMDYWGQGTSVTVSS
VL: B1 VL with A13V, S22N, S53N, A60S, I85T, Q90H
On to B2, for which, in test [1], the EC50 turned out to be 0.65 nM and the “Top MFI” value worked out at 990 MFI. For the same molecule, in test [2], the 50% effective concentration (EC50) was found to be 0.53 nM and the “Top MFI” value was found to be 480 MFI.

B3: 46A5A4 mouse hybridoma-derived anti-DLL3 chimeric antibody (antibody, V domains shown)
VH: QVQLQQSDAELVKPGASVKISCKVSGYTFTDHTIHWMKQRPEQGLEWIGYIYPRDGYTMYNEKFKGKATLTADKSSSTAYMQLNSLTSEDSAVHFCARAFHALDYWGQGTSVTVSS
VL: B1 VL with I21F, S22T, V44I, A60S, I85T, F94L
As for B3, the EC50 in test [1] was 1.18 nM; in test [3], 1.2 nM; in test [2], 0.67 nM. The “Top MFI” value in test [1] turned out to be 1010 MFI; in test [3], 1570 MFI; in test [2], 475 MFI.

B4: H1-45E4D7 mouse hybridoma-derived humanized anti-DLL3 antibody (antibody, V domains shown)
VH: QVQLVQSGAEVKKPGASVKVSCKASGYTFTSHWITWVRQAPGQGLEWMGDIYPISGSTNNNEKFRNRVTMTRDTSTSTVYMELSSLRSEDTAVYYCAKIITVGGAYVMDYWGQGTLVTVSS
VL: EIVMTQSPATLSVSPGERATLSCRASQSVRNNLHWYQQKPGQAPRLLIYYVSQSISGIPARFSGSGSGTEFTLTISSLQSEDFAVYYCQQSNSWPLTFGGGTKLEIK
Take B4: in test [3], the half-maximal effective concentration (EC50) was 5.16 nM and the “Top MFI” value came out at 1590 MFI.

B5: 27E10C5 mouse hybridoma-derived anti-DLL3 chimeric antibody (antibody, V domains shown)
VH: QVQLQQSGAELVKPGASVKISCKASGYAFSSQWMNWVKQRPGKGLEWIGQIYPGNGDTNYNGKFKGKATLTADKSSSTAYIQLSSLTSEDSAVYFCARWFAYWGQGTLVTVSA
VL: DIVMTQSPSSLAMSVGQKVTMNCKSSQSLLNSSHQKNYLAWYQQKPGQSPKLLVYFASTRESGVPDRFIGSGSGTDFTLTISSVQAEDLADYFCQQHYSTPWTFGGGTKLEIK
Turning to B5, the EC50 is 1.2 nM in test [1] and 1.39 nM in test [2]. In addition, the entries for the “Top MFI” value in test [1] and in test [2] were 813 MFI and 396 MFI, respectively.

B6: 39E2D11-1 mouse hybridoma-derived anti-DLL3 chimeric antibody (antibody, V domains shown)
VH: QVQLQQSGAELVKPGASVKMSCKASGYTFISYWITWVKQRPGQGLEWIGDIYPGSGSTTNYNEKFKSKATLTVDTSSSTAYMQLSSLTSEDSAVYYCARETTVGGAYAMDYWGQGTSVTVSS
VL: DIVLTQSPATLSVTPGDSVSLSCRASQSINNNLHWYQQKSHESPRLLIKYVSQSISGIPSRFSGSGSGTDFTLTINSVETEDFGMYFCQQTNSWPLTFGAGTKLELK
Consider B6, for which the EC50 was determined as 0.85 nM in test [1], 1.49 nM in test [3] and 1.03 nM in test [2]. In addition, the “Top MFI” value in test [1] came to 999 MFI; in test [3], 1650 MFI; in test [2], 445 MFI.

B7: 45E4D7 mouse hybridoma-derived anti-DLL3 chimeric antibody (antibody, V domains shown)
VH: QVQLQQPGAELVKPGTSVKLSCKASGYTFTSHWITWVKQRPGQGLEWIGDIYPISGSTNNNEKFRNKATLTVDTSSSTAYMQLSSLTSEDSAVYFCAKIITVGGAYVMDYWGQGTSVTVSS
VL: B6 VL with A9V, I29V, N30R, T74S, M85V, T91S
For the molecule B7, the EC50 in test [1] was found to be 0.68 nM; in test [3] it was 0.894 nM; in test [2] it was 0.71 nM. The results for the “Top MFI” value in test [1], in test [3] and in test [2] were 965 MFI, 1560 MFI and 454 MFI, respectively.

The values above are taken from patent publication US20240239878A1 (SHANGHAI QILU PHARMACEUTICAL RESEARCH AND DEVELOPMENT CENTRE, published 2024).
